These results are taken from patent US20260031189A1, “METHOD AND SYSTEMS FOR PREDICTION OF HLA CLASS II-SPECIFIC EPITOPES AND CHARACTERIZATION OF CD4+ T CELLS” (BioNTech US Inc., priority 2022, published 2026).

What is called IC50 is the point on the concentration scale where inhibition reaches its midpoint.

The labels stand for the following.
B1: S166-182 (peptide)
peptide: CTFEYVSQPFLMDLEGK
modifications: not checked
B2: Positive control peptide … (unlabelled) (peptide)
peptide: EKKYFAATKFEPLAARL
modifications: not checked
B3: S231-243 (peptide)
peptide: IGINITRFQTLLA
modifications: not checked
B4: S131-147 (peptide)
peptide: CEFQFCNDPFLGVYYHK
modifications: not checked
B5: Positive control peptide … (unlabelled) (peptide)
peptide: AAATAGTTVYGAKAA
modifications: not checked
B6: S798-810 (peptide)
peptide: GGFNFSQILPDPS
modifications: not checked
B7: S39-54 (peptide)
peptide: PDKVFRSSVLHSTQDL
modifications: not checked
B8: S1182-1196 (peptide)
peptide: EIDRLNEVAKNLNES
modifications: not checked
B9: S1009-1023 (peptide)
peptide: TQQLIRAAEIRASAN
modifications: not checked
B10: S425-440 (peptide)
peptide: LPDDFTGCVIAWNSNN
modifications: not checked
B11: S322-338 (peptide)
peptide: PTESIVRFPNITNLCPF
modifications: not checked
B12: S238-254 (peptide)
peptide: FQTLLALHRSYLTPGDS
modifications: not checked
B13: S829-845 (peptide)
peptide: ADAGFIKQYGDCLGDIA
modifications: not checked
B14: S749-762 (peptide)
peptide: CSNLLLQYGSFCTQ
modifications: not checked

The target in one assay is T1, HLA-DPA1*01:03/DPB1*04:01 soluble heterodimer (human), P20036.
T1 chain 1: not shown
T1 chain 2: not shown
Put plainly: FP competition with FITC probe, HLA-sDM, average.
For B1, the IC50 came out at 11 nM.
The same measure, in the same setting: then B2, with 30 nM.
Same read-out and setting: next, B3: 510 nM; B4: 58 nM.

In the next assay the target is HLA-DQA1*01:02/DQB1*06:02 soluble heterodimer (human), P01920. As to the kind of experiment: FP competition with FITC probe, HLA-sDM, average.
B5: the IC50 is 1100 nM.
The same measure, in the same setting: then B6, with 1200 nM.
The molecule B7 showed an IC50 of 1600 nM.
With B8, the IC50 is above 50000 nM.
Same read-out and setting: then B3, with above 50000 nM; and B9, with 520 nM; and B10, with 390 nM.

In the next assay the target is T2, HLA-DRA*01:01/DRB1*15:01 soluble heterodimer (human).
T2 chain 1: not shown
T2 chain 2: not shown
Put plainly: FP competition with FITC probe, HLA-sDM, average.
In the case of B11, the IC50 turned out to be 26 nM.
Still for that read-out and setting: then B12, with 140 nM; and B13, with 56 nM; and B14, with 270 nM.
